Measured values: US20100087631A1 (Eli Lilly, published 2010)

T1: recombinant mouse myostatin (R&D systems, Cat. #788-G8/CF) (mouse, UniProt O08689 268-376)
T1 construct: Bought protein; also called GDF-8; myostatin (R&D Systems 788-G8)
T1 sequence: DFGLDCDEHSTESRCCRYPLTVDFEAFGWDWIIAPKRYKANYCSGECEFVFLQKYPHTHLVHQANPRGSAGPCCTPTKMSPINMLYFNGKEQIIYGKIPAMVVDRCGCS


Tests used:
human GDF-8 (human) [1] = biological target: human GDF-8 (human) (UniProt O14793); assay: ELISA, human GDF-8 coated on plate, isotype control at 1 ug/ml (column headed 510C2 GDF-8)
[2] = biological target: recombinant human GDF-11 (Peprotech, Inc., Cat. #120-11) (human) (UniProt O95390); assay: ELISA, human GDF-11 coated on plate, isotype control at 1 ug/ml (column headed 510C2 GDF-11)
Sequence of recombinant human GDF-11 (Peprotech, Inc., Cat. #120-11) (human) (O95390 299-407 limits assumed): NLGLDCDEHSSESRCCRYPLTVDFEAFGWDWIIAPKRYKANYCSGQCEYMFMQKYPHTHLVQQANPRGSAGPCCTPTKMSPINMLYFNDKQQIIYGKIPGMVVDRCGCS

[3] = biological target: recombinant human HGF (R&D Systems, catalog #294-HG/CF) (human) (UniProt P14210); assay: ELISA, human HGF coated on plate, isotype control at 1 ug/ml (column headed 510C2 HGF)
Sequence of recombinant human HGF (R&D Systems, catalog #294-HG/CF) (human) (P14210 32-728 limits assumed): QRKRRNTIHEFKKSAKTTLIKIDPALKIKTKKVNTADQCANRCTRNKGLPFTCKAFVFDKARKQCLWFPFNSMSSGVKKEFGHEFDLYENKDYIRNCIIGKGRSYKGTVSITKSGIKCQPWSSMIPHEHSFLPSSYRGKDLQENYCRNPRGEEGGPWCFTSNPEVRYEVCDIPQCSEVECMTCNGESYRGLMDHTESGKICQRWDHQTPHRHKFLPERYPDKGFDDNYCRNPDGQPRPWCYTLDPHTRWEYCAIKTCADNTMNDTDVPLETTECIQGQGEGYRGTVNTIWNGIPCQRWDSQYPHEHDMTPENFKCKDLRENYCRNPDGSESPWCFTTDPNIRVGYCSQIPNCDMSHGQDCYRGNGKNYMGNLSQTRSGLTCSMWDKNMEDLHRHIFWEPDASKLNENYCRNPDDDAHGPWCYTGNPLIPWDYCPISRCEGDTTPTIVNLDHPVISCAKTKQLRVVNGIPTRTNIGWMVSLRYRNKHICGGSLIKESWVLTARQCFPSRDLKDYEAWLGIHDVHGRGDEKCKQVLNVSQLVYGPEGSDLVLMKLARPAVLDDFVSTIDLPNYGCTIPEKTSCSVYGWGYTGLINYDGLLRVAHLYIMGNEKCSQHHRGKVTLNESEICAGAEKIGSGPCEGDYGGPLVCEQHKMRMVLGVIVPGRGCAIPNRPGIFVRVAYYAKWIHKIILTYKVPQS

human GDF-8 (human) [4] = biological target: human GDF-8 (human) (UniProt O14793); assay: ELISA, human GDF-8 coated on plate, isotype control at 1 ug/ml (column headed C12 GDF-8)
[5] = biological target: recombinant human GDF-11 (Peprotech, Inc., Cat. #120-11) (human) (UniProt O95390); assay: ELISA, human GDF-11 coated on plate, isotype control at 1 ug/ml (column headed C12 GDF-11)
[6] = biological target: recombinant human HGF (R&D Systems, catalog #294-HG/CF) (human) (UniProt P14210); assay: ELISA, human HGF coated on plate, isotype control at 1 ug/ml (column headed C12 HGF)
[7] = biological target: T1, recombinant mouse myostatin (R&D …); assay: ELISA, GDF-8 coated on plate (GDF-8 down), Fab titrated, anti-kappa AP detection

average absorbance at 490 nm (human GDF-8 (human) [1]) | average absorbance at 490 nm [2] | average absorbance at 490 nm [3] | average absorbance at 490 nm (human GDF-8 (human) [4]) | average absorbance at 490 nm [5] | average absorbance at 490 nm [6] | IC50 [7] | Molecule
0.0907 OD 490 nm | 0.0919 OD 490 nm | 0.0804 OD 490 nm | 0.0519 OD 490 nm | 0.0487 OD 490 nm | 0.049 OD 490 nm |  | isotype control antibody
 |  |  |  |  |  | 0.25 µg/mL | C12 Fab (Fab, V domains shown) VH: QLQLQESGPGLVKPSETLSLTCTVSGFSLRKVGSSVSWIRQPPGKGLEWIGHIYWDDDKRLNPSLRNRVTISVDTSKNQFSLKLSSVTAADTAVYYCARRAITTVIGGGTFDLWGQGTLVTVSS VL: DIQMTQSPSSLSASVGDRVTITCSASSSISYMHWYQQKPGKAPKLLIYDTSKLARGVPSRFSGSGSGTDFTLTISSLQPEDFATYYCQQWYLNPLTFGGGTKVEIKR
